We go through 1 substance from PMC6305201.

The target in experiment [1] is glycophorin A on red blood cells (human (endogenous in red blood cells)) (UniProt P02724).
The target is the same in experiment [2]. The source holds these as a separate data set.

On to “recombinant soluble region II (RII) of EBA-175 (domain or fragment)”, for which the lowest concentration of RII at which RBC clustering was seen (confocal live imaging, picomolar and low nanomolar RII) in experiment [1] stood at 0.3 nM. In experiment [2], this substance gave a mean cluster area of RBCs under flow (1 dyn/cm^2), RII 1, 10 and 100 nM of 1140 µm^2.
